Laboratory results published in patent publication US20220119552A1.

Legend:
[1] = biological target: CD3 on human T cells (human) (UniProt P07766); experiment: flow cytometry on T cells coated with 1 µg/mL antibody
[2] = biological target: Carcinoembryonic antigen (CEA) on CEA positive cells (UniProt P06731); experiment: cell-based or functional assay
Chain of UniProt P06731 (P06731 35-702): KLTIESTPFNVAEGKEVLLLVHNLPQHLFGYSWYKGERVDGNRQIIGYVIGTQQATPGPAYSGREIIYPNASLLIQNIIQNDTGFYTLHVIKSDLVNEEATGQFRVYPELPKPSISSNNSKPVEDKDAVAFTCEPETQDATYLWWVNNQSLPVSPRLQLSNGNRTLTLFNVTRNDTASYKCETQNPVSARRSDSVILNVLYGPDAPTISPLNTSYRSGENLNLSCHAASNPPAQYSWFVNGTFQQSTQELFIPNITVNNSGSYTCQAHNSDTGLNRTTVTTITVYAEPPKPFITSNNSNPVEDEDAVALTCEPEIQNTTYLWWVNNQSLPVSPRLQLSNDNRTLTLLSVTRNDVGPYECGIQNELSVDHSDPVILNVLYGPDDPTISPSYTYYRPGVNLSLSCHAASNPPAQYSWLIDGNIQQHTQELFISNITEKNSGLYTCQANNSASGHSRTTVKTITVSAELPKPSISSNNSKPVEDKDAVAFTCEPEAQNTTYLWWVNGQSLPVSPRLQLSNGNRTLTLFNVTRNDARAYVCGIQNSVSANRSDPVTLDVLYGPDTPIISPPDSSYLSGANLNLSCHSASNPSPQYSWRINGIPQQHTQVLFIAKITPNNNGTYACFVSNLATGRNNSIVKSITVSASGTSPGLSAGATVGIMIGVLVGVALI

Chain of UniProt P07766 (P07766 23-207, chain 1 of 3): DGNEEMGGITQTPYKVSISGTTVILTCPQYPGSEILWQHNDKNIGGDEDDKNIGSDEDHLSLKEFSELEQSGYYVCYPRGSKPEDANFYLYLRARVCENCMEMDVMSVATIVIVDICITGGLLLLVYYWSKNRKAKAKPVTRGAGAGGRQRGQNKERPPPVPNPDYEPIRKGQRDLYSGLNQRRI
Chain of UniProt P07766 (P04234 22-171, chain 2 of 3, further chain): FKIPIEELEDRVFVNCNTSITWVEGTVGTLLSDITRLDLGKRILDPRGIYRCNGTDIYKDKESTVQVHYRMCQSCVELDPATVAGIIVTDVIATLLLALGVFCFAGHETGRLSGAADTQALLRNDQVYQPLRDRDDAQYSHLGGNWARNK
Chain of UniProt P07766 (P09693 23-182, chain 3 of 3, further chain): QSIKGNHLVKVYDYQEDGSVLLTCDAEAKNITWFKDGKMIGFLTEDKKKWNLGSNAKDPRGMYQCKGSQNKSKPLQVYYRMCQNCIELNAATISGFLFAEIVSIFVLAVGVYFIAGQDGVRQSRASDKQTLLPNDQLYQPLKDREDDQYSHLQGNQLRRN

| percent of cells labelled [1] [%] | redirected cell lysis, T-cells coated with preformed dbBiTEs, E:T 10:1 [2] [%] | redirected cell lysis, on-cell (in situ) generated dbBiTE coated T-cells, E:T 10:1 [2] [%] | Substance |
| --- | --- | --- | --- |
| > 90 | – | – | DBCO-hOKT3 (humanized anti-human CD3 antibody hOKT3 conjugated to DBCO) |
| – | 90 | 60 | dbBiTE (dual specific bivalent bispecific T-cell engaging antibody: DBCO-hOKT3 clicked to azide-M5A) (bispecific antibody) |
